The experiment has as its target T1, 人CD123蛋白 (白细胞介素3受体α链, IL3RA) (human, UniProt P26951 19-378).
T1 construct: whole, on cells
In words: FACS, PE-labelled 13C3 titrated (200nM to 0.003nM) on 3T3 cells transfected with CD123; Kd fitted in GraphPad Prism 5.

T1 sequence (P26951 19-378): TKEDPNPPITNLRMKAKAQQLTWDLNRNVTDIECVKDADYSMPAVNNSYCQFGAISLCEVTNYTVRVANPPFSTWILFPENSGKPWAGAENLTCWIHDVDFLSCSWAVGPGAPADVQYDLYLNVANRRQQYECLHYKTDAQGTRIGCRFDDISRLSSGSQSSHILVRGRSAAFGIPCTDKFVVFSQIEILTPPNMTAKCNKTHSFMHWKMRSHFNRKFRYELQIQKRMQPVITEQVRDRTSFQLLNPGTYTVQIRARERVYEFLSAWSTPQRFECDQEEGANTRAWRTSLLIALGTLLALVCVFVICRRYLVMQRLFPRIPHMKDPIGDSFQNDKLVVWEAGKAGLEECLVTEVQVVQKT

B1: 鼠抗人CD123单克隆抗体13C3 (antibody, V domains shown)
VH: QVQLQESGPGILQPSQTLTLTCSFSGFSLSTSGMGVGWIRQPSGKGLEWLAHIWWDDDKRYKPALKSRLTISKDTSSNQVFLKIASVDTADAATYYCARMGGGNYLFLYAMDFWGQGTSVTVSA
VL: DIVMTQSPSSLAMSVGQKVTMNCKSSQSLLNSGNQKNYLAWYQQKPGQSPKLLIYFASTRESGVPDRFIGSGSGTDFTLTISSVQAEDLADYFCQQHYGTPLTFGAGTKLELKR
notes: PE-labelled purified antibody in the Kd assay and on patient samples; also called 抗CD123单克隆抗体13C3; 杂交瘤细胞株13C3 (CGMCC No.16699) 产生的抗体
In turn, B1 gave a Kd of 3.67 nM.

(Values after patent publication CN109810195A (INST OF HEMATOLOGY BLOOD DISEASES HOSPITAL OF CHINESE …, dated 2019).)
